A short description of the series: label from the status in PepcDB records.
As for “DVKEFCKKSLRVRKRQLKDLLYSLEDDNKELFERVIKLFENFKNRDEIFYEKISEEIVWTVKKNILFVNIEEGILKPQSKLDLLAIREILDEIKT”, the protein production entry was “failed”.
As for “MVRKGQMIIGAFACLIASMSWGAMFPVADHALEYIDPFYFSLIRYGAVAIMLIVLLLMKEGKQAFRLEGRGRLLVFFGTMAFTVYNVLIFLGQMLMGKSGVMVASIMEALMPMISICILWGYKRVKPKKYMITSMIIAFIGAVFVITKGDVSFFLTLKDNMFSLACIFVGVVGWVIYTMGGQTCSDWSTLRYSTLTCVFGTTVTGIITVLITSLGYVSVPSMGTISVVKYDLLFMMTLPGIVALLAWNYGVKILSSINGILFINFVPITTLVIMMMQGYQITMFDIVGTLFVIAALIRNNVCQRKEENINKKMLQEEQLRQAV”, the protein production entry is “failed”.
The same measure for “SANSGCKDVTGPDEESFLYFAYGSNLLTERIHLRNPSAAFFCVARLQDFKLDFGNSQGKTSQTWHGGIATIFQSPGDEVWGVVWKMNKSNLNSLDEQEGVKSGMYVVIEVKVATQEGKEITCRSYLMTNYESAPPSPQYKKIICMGAKENGLPLEYQEKLKAIEPNDYTGKVSEEIEDIIKKGETQTL”: “not failed”; for “MKSKNQFFVSLLLKSTLVFSSFLMFADISRGQATVSISQQKILAQALTNQEREELTRLRAEKGERAQIQADFEQAFSRTTVLLNIWLVILSLFPVAIIALFWLLRRVAIREIVNRAMSQFEGIEKLETQLIIVKQDAENLIQDAKSINRLLEREIESLQQKIKIEQENLSVVTSELLQAKTDNLAQITTEIANFQSKLESLVGEFAHRLTQSDSDTKKQRDITLENIIKIESLLEVQLTELQKEAERHQKAVLGNIDTAGVDFNNYLINLQAEAQKNKNSVFEDFSHFQAELQGDLQQQKDIQLGNIQEVANIFNNQVSELQLEAQKQKDSLDNNLNKLHTDAQIRKDKIIHRLEELKDLFQAQVAELQIQTQQELASYLSELKIDTGNSKEKIIEELEKSGSEFVSQFSELQHNAQQQKLLILQKLEKLETDFVNQLSELQLDAQRRKDVILQELAENQPPVVVEAQPIHKDQLEVLVNENEQPQLSFDECIEQGDSLFSQKSYEEAITCYEQAVKIQQDNAVAWFKHGLTLARLKRFKDAIKSYHQAIKIKPDYHQAWCDLGVAFGNIRRHQEAFAAFDKATQVKPDDAVVWLNRGLALIELEEYEEAIASFDQALELQPNSPKIWDKRGYSLVRLGRDDEAITSFNQALEIKPEYASAYYNKAACYAMQGDVNSSLENLQQAIILNPKYKEDAATDIDFDEIAGDEKFKQLIATIGIRFDF”: “failed”.
The same measure for “MNIYDQLQAVEDRYEELGELLSDPDVVSDTKRFMELSREEANSRETVAVYREYKQVVQNIADAQEMIKDASGDPELEEMAKEELKNSKVAKEEYEEKLRFLLLPKDPNDDKNIILEIRGAAGGDEAALFAGDLLNMYQKYAENQGWKFEVMEASANGVGGLKEVVAMVSGQSVYSKLKYESGAHRVQRVPVTESQGRVHTSTATVLVMPEVEEVEYEIDPKDLRVDIYHASGAGGQNVNKVATAVRIIHLPTNIKVEMQEERTQQKNRDKAMKIIRARVADHFAQIAQDEQDAERKSTVGTGDRSERIRTYNFPQNRVTDHRIGLTLQKLDSILSGKLDEVIDALILYDQTQKLEELNK”: “not failed”.
The same measure for “PETVCWGHVEEVELINDGSGLGFGIVGGKTSGVVVRTIVPGGLADRDGRLQTGDHILKIGGTNVQGMTSEQVAQVLRNCGNSVRMLVARDPAGDISVT”: “not failed”; for “MAKTPAAAPTATDPVAIAGPAPETIAVHGHRIACDGVGGALGHPRVWLEMGAAGFVDCPYCDRRFVAATDAGHDEHLAPGVYVDAAGHLEHHHHHH”: “failed”.
Regarding “MDNRTGEMEVFVSAAELQSFSAAGRRLKLSPSAVSKLVTRIEDRLGTRLLVRSTRMMTLTPEGEIYLARARRILADIADTEQIVAAGGKLVPRGLLRVNASVGFGERFLLPLIPAFLELYPEVQLDISLTDGIIGLIEERTDIAIRSGAMDDSSLKARKLLESRRVIIASPSYIKRHGMPQTPADLAAHNCFSFNFRRSLNEWPFRDPGSTEIYRLPVSGNSSVNSGMIMRRLCLAGSGLGRVGQFHVQPDIDAGTLVPVLEDYNPDDIEEIHAVFAGHEHLATRIRAFIDFLAEHVGKDRA”, the protein production entry is on record as “failed”.
In the case of “MSLQESSLVLSNGLGFVDTPYKAGTLEVDDTEDLIINCDEVDCTTFVEYALAMALCPQQGDEMQEGDFARNLQRIRYRDGKIDGYTSRLHYISDWINNAVRQGLLEDVTAAYSPFKQKLSLSYMSTHPELYKSLKNSPENVAQMAKYEKALSGKEVHYLPKDKLEPDGLPWIKNGDIIALTTNTPGLDVSHMGIAIYIKGQLHLLHASSKEGKVVVGKTALSQMLKDRKSLTGIRVLRMKKEGHHHHHH”, the protein production entry is on record as “not failed”.
“MKSARPRLSDAHGRRNCARRGRRPGHQPFWRLAMNIVRYPQFSTHALQNEIKHVFDRFFEHNSDTDESAVVTAQWVPRVDIKEEPKHFVLYADLPGIDPSQIEVQMDKGILSIKGERKSESSTETERFSRIERRYGSFHRRFALPDSADADGITASGHNGVLEIRIPKRPAATPRRIHVGNGQDTSDSTVQ”: the protein production entry was “failed”.
As for “MNIQRETSGHIAAIVTILIWGTTFISTKVLLADFSPMEILFYRFLMGFIALILVRPNMIPFRNWRQELLFAGAGLFGVTLYFLLENIALTYTYASNVGMIVSIIPMITAVLAHFLLEGEKLRLTFLIGFISALIGLLLITFNGNVVLRLNPLGDIMAAGAALVFGGYSIFMKKLSAYEYHIIELTQRVFLYGLLFMVPALFLFDFHFDLSRFSSASNILNMLFLGIGASALCFATWNYSVGVLGAVKSSAYIYMVPVITIAASVLILHENMTWIALLGGALTLLGLYISELKPKAKLLENGCKMDA”, the entry is “failed”; as for “MNPIILALFDVSIFILLAEILSSLVQKYGLPKLIGELLAGMIIGPYALGSLLNQLLGFPLIGINSYIEFLAEFSVILLIFASGLEHGIAPIKSSGILGFLGATFGALLPFFAAYYFYISSFGLDSALILGTAMGATSLAAVASIIEEGKLKGKGINFMVSSAAADDVVDLLLLSVVIAILQGESTSVTSISLKIIALVVIWVVILVVSIILIPKITDRISDKYIEEFPLAVLFGLTLLMVSLGYSPIISAFVAGVAFANSVKNSKIKEISSTLLSVFGPLFFVYIGAEVNFLTLNLNTVILSLELTAIATIFKWLGIFPFALAYLRNAKAANTVALGMVPRGETGLVIASLGLSYNALNQEEFEGIVFMSIFTTLIGSALFKIYAKKHLVS”, “failed”; as for “PSEPVTDEYLTSVTIGERKPLNDRIQLAEYDLRWPSMFSVAADKIRSALSEKALLVEHVGSTSVPGLAAKLIIDMLLGVTDSADEKSYVLPLEQQGFVLQAREPGWYEHRFFRLKSGDMEWHLHVFSAECEEIDRMLAFRNWLRVHDDDRQRYENVKRTLAARTWKHMQNYADAKSDIVREILGRA”, “failed”.
As for “MDSPIINEQFWDALFFNGTMPWDRSQTPNELKHYLKRIADKTHSVFIPGCGAAYEVSHFVDCGHDVIAMDYSAEAVNLAKSQLGQHQDKVMLGDVFNADFSREFDVIYERAFLAALPREIWGDYFAMIERLLPSNGLLVGYFVISDDYRSRFPPFCLRSGEIEQKLEANFHLIESTPVTDSVDVFKGKEQWMVWQKLEHHHHHH”, the entry is “failed”; as for “MDFKTVMQELEALGKERTKKIYISNGAHEPVFGVATGAMKPIAKKIKLNQELAEELYATGNYDAMYFAGIIADPKAMSESDFDRWIDGAYFYMLSDYVVAVTLSESNIAQDVADKWIASGDELKMSAGWSCYCWLLGNRKDNAFSESKISDMLEMVKDTIHHSPERTKSAMNNFLNTVAISYVPLHEKAVEIAKEVGIVEVKRDNKKSSLLNASESIQKELDRGRLGFKRKYVRC”, “not failed”.
As for “MRFTNTILMTTFTALLAVALVAGCASKKKDETDPFFSKWQSLASNSTGFSPPKVVRDVKPKTLLRQEEVTAKQEEQKRPLPQMPVTLKLHNVDVGVALRSLAAAANTSIIVSPGVKGTASINVNRVPWEDVFKGILASNALDFAWRGELIQVMTLADKKAEVERELLETQRMAQQLKGRKVGPLVTSVIEVRYAEAAELKKNLEGFLSKDEQNKPVGAVVVDTHTNSLIVQAVEDDLSKIITLVNNLDKPRAQILLKAHIVEATRDTARDLGIQWGGVGRSGNMGDGNRMWVTPGGSGPTKPTDPQAGGGVPVIPPGGLSGQGFGMNFPVNKAGKTAMGSLGLMFGTIGGNMLEVQLSALQDNGKLNILSSPSISTLDNQMAFTENGEKVPYVSTNAQGDREVKFEDAVLRLEITPHVIDESNLKLKVQVKKDEVDLTRTVEGNPFIIKKQTETTLIVQDGETVVISGLTKERSSTRRQGLPYLQDVEGIGALFGNDSKANKLEDVLIFITPAILPYREETSVN”, the entry is “failed”.
As for “MTRPLRWWKRACPGAALRRDVNAFPPPSLAKLSAVFTIRRQPELDRRPQGASAGGALQALIAALPFALRPSRLSRQAKRPWTRACRRRLPATVGAGSLAAMDSAQPNTAAARYKSFAAFYPFYMTEHANPVSRRLHVVGTSLVIVCLVLGVFRDWRFFIAAPVIGYGFAWIGHFVFEKNRPATFKYPVYSLMGDFRLWFETVTGRRKF”, the protein production entry is listed as “failed”.
The same measure for “MSLFTCEDPAVWKAVHNKYWTVVEAKSAGKRKTSGKLLQLDKWFQEDLPAAITARPERFLTHAELVKIMEWKLTKGKFRPRLQQLIGSNNEEAVQSSSSKAFSLLPDVQAAIKELCKLKGVGSATASAVLVAGAPDKVAFMADEAVESIAELRPVEYTDKHYALYLQKMLWKTSELNKVDAQQDWTPHRVEQCLWTWTVANQIQPSLLQGVSLKDATNQKPEKRKTADEKPSKRKKTE”: “failed”; for “MDSFMESLNRLKEAHEKEVLGLQNKLLELNSERCRDAQRVEELFAKNHQLREQQKALKENLRVLENRLRAGLCDRCMVTQELARKKQLELENAHLQSLQHLCILTNEMNGLREENKILKEEVKRLRSLGDKTAPQAWEGTSEPPSPLPLPSPRQASGPP”: “failed”; for “MPTLGFRFRAYTDEQTLRALKAQLKSACKIYNTLRWADIYFYQRDGKGLTRTELRQLALDLRKQDDEYKQLYSQVVQQVADRYYEAKKRFFEGLAHFPKEKKPHKHYSLVYPQYGWKILQVREIRKGSKKKLITLKLSNLGTFKVIVHRDFPLDKVKRVVVKLTRSERIYITFVVDHEFPKLPNTGKVVAIDVGVEKLIVTSDGEYFPNLRPYEKALWKVKHLHRELSRKKFLSHNWFKAKVKLARAYEYLKNLRTDLYMKLGKWFAEHYDVVVMEGIHVKQLIGKSLRSLRRRLSDVAFSELRDLIKYQLEKYGKKLILVNPAYTSKTCAKCGYVKEDLSLSDRVFVCPNCGWIADRDYNASLNILRGSGSERPLVWSSALYQYSGMAELLEHHHHHH”: “not failed”.
“HHSVEAPQVKKRMGKFPFVKASKKESEEISKQLHNALDIELPSESTVWLRDKDVWLFPDALEPMIGELRFSRMGIKIAEAHKNGYRWQHQVATALATGAESNAIELTIEEAREWYMGRDVRPQIIPEGLKTGKGEVLVKYQGAIIGLGKWVSNRIKNGLPRELVRDKNLF”: the protein production entry is on record as “not failed”.
The same measure for “MGAIQFQTAPKLPVTVLLAAKNEAVNLPRCLAALGPAERVIVLDSHSTDATAEIARQHGAEVAQFDYRGGYPKKRQWALDTIPFGTPWILLLDADEVVPEDLWKEIGNVTRQPDADAYLITKGFHFLGRKFKHGGFSHSAVLLFKTGMARFEKLFDDDLNGLDMEIHERVVVDGRIGKLKTPLVHEDFKGLEAYITRHNKYSTWEAKVRHHYLTTGRYGEQTIKPRLFGNSQERRRFLKALIIRLPFEPQIWFIYHYLLRLGFLEGRPGLIASQIRAAYIAQARAKIYELRLNTPSRLEHHHHHH”: “failed”.

These data come from a protein production outcome set (Wang et al. 2014).
